T1: AGS3-GL1234 (470–631) (mouse)
T1 chain: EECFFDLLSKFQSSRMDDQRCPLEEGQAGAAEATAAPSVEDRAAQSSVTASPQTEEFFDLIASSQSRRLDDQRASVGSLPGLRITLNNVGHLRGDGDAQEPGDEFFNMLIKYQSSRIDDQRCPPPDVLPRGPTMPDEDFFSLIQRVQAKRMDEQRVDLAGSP

T2: LGN GL4 motif (mouse)
T2 chain: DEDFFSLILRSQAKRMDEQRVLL

T3: LGN GL3 motif (mouse)
T3 chain: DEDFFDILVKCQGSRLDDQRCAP

T4: LGN-GL1234 (483–650) (mouse)
T4 chain: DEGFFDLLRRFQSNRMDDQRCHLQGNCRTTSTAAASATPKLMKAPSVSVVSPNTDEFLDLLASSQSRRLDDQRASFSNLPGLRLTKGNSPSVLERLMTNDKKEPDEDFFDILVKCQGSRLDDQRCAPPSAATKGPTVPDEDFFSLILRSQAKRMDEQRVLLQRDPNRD

T5: FL-LGN-4E (mouse, UniProt Q8VDU0)
T5 sequence (Q8VDU0 whole entry, looked up): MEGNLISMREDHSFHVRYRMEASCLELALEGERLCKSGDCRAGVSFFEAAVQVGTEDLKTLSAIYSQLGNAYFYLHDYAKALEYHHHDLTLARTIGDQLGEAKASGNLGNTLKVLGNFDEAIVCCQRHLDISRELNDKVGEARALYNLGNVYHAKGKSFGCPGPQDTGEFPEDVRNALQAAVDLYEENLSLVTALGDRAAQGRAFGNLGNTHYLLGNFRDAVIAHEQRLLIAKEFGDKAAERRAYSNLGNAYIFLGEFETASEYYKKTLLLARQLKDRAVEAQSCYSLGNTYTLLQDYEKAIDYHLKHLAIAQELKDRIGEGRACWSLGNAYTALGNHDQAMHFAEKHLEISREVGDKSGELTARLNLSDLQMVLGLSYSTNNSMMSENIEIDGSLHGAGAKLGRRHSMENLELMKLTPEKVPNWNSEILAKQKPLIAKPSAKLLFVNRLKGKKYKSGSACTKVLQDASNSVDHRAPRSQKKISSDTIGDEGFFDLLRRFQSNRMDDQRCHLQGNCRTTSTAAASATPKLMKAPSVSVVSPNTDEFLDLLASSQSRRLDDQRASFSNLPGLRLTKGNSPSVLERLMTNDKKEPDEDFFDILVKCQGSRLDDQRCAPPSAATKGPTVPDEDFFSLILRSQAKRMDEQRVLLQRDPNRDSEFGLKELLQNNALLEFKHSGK

T6: AGS3-TPR (1–405) (mouse)
T6 chain: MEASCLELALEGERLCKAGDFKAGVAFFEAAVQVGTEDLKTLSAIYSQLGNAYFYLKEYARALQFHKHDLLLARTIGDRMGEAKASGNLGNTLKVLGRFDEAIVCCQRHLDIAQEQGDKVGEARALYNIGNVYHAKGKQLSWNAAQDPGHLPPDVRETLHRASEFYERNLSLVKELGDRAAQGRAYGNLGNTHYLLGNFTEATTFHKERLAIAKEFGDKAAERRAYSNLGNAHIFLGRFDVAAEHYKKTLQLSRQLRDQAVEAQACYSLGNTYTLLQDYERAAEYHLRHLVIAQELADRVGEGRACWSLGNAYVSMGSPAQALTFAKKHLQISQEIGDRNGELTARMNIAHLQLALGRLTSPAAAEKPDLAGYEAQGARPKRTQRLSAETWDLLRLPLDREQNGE

T7: AGS3-L (−23–405) (mouse)
T7 chain: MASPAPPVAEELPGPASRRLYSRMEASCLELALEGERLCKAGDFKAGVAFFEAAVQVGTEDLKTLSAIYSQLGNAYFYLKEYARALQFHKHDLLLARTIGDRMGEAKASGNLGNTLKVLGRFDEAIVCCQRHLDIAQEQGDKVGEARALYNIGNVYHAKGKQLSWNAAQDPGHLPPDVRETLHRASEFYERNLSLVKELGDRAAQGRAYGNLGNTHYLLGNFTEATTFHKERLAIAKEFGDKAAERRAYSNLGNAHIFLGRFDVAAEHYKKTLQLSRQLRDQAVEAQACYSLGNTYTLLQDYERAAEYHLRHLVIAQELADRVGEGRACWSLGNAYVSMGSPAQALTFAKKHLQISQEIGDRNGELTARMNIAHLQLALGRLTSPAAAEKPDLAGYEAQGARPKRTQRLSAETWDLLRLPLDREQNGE

T8: FL-AGS3-4E (mouse, UniProt Q6IR34)
T8 sequence (Q6IR34 whole entry, looked up): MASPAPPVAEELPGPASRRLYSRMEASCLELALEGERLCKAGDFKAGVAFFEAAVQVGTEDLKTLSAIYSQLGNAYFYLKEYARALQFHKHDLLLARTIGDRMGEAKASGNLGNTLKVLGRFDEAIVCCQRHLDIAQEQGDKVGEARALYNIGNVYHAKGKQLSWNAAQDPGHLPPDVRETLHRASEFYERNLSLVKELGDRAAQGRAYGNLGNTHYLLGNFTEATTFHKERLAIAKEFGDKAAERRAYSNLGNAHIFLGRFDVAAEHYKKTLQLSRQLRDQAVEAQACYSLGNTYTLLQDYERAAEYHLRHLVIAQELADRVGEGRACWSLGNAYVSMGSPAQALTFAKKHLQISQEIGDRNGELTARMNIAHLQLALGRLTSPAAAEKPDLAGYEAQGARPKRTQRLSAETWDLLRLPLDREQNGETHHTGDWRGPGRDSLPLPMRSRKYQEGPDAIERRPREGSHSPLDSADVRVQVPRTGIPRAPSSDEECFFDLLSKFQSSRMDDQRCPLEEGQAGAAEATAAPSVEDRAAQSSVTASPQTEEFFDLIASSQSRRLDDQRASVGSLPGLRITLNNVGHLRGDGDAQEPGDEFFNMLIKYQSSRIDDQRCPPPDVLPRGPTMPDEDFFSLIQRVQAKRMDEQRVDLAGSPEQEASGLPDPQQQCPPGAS

T9: LGN-TPR (1–409) (mouse)
T9 chain: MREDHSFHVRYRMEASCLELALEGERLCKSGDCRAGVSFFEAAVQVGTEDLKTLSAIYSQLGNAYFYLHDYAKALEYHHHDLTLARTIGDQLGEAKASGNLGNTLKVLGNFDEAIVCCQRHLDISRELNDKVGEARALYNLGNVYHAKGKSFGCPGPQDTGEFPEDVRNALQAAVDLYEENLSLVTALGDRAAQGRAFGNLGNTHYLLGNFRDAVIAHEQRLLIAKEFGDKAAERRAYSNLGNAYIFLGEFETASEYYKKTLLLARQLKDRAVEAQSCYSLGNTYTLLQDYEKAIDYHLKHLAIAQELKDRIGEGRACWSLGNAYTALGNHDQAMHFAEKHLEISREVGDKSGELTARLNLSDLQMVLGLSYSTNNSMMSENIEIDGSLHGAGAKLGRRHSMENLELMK


Columns and labels:
AGS3-GL1234 (470–631) = target: T1, AGS3-GL1234 (470–631); assay: ITC
LGN GL4 motif = target: T2, LGN GL4 motif; assay: ITC
LGN GL3 motif = target: T3, LGN GL3 motif; assay: ITC
LGN-GL1234 (483–650) = target: T4, LGN-GL1234 (483–650); assay: ITC
FL-LGN-4E = target: T5, FL-LGN-4E; assay: ITC
AGS3-TPR (1–405) = target: T6, AGS3-TPR (1–405); assay: ITC; AGS3-TPR premixed with NuMA (1886–1912)
AGS3-L (−23–405) = target: T7, AGS3-L (−23–405); assay: ITC
FL-AGS3-4E = target: T8, FL-AGS3-4E; assay: ITC
LGN-TPR (1–409) = target: T9, LGN-TPR (1–409); assay: ITC

Kd (AGS3-GL1234 (470–631)) [nM] | Kd (LGN GL4 motif) [nM] | Kd (LGN GL3 motif) [nM] | Kd (LGN-GL1234 (483–650)) [nM] | Kd (FL-LGN-4E) [nM] | Kd (AGS3-TPR (1–405)) [nM] | Kd (AGS3-L (−23–405)) [nM] | Kd (FL-AGS3-4E) [nM] | Kd (LGN-TPR (1–409)) [nM] | Binder
280 | 190 | 42 | 260 |  |  |  |  |  | Gαi3⋅GDP (natural protein) MGCTLSAEDKAAVERSKMIDRNLREDGEKAAKEVKLLLLGAGESGKSTIVKQMKIIHEDGYSEDECKQYKVVVYSNTIQSIIAIIRAMGRLKIDFGEAARADDARQLFVLAGSAEEGVMTPELAGVIKRLWRDGGVQACFSRSREYQLNDSASYYLNDLDRISQSNYIPTQQDVLRTRVKTTGIVETHFTFKDLYFKMFDVGGQRSERKKWIHCFEGVTAIIFCVALSDYDLVLAEDEEMNRMHESMKLFDSICNNKWFTETSIILFLNKKDLFEEKIKRSPLTICYPEYTGSNTYEEAAAYIQCQFEDLNRRKDTKEIYTHFTCATDTKNVQFVFDAVTDVIIKNNLKECGLY
 |  |  |  | 580 | 12700 | 870 | 290 | 980 | WGLWGAQESRRLCCVGPDRCGQALLQIGINMMALPGGRHLDSVPLQEQR (domain or fragment) [Insc (18–66)]

From publication PMC12151148 (2024)
